The text below walks through data of patent US20070184522A1, “Cell death modulation via antagonists of Fasl and Fas activation” (University of Pittsburgh of the Commonwealth System of …, priority 2004, published 2007).

Assay [1] has as its target T1, Fas trimerization in Jurkat cells (Homo sapiens, UniProt P25445).
T1 construct: endogenous in cells; host or cells: Jurkat
T1 sequence (P25445 26-335): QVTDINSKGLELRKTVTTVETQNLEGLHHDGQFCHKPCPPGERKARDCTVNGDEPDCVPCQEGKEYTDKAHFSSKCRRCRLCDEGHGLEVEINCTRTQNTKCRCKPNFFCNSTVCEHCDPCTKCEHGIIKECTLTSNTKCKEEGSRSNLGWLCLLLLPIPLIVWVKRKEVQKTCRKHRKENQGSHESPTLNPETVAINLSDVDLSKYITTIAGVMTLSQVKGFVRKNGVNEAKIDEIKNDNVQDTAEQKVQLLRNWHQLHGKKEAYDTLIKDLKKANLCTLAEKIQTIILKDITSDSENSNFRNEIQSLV
Put plainly: Chemical crosslinking (DTSSP) and Western blot of Fas trimerization in Jurkat cells. Format: cell-based. Conditions: Fas Ligand 2 μg/ml, DTSSP. As to the method: FIG. 3a presents data collected from Jurkat cells (1×10^6) treated with 2 μg/ml of Fas Ligand with or without AlphaMet for 30 minutes on ice. Cells were washed with PBS twice and then incubated with 2 mM of DTSSP in PBS for 30 minutes. The crosslinking process was stopped by 20 mM of Tris (pH 7.5) for another 30 minutes. Cells were spun down and washed with PBS twice and lyzed in RIPA buffer. Cell lysates were subjected to SDS-PAGE under non-reducing or reducing conditions (FIG. 3b) and Western blot analysis using the mouse monoclonal antibody against human Fas. FIG. 3c depicts the quantification of the data in FIG. 3a by densitometry. The data are the mean and SE from three different independent crosslinking and Western blot experiments. […] Frame A: Acceptor CFP-Fas image; Frame B: Acceptor pre-bleach CFP-Fas image; Frame C: Acceptor post-bleach image. Frame D: Donor YFP-Fas image; Frame E: Donor pre-bleach image; Frame F: […]. The CFP-Fas strength in the selected region obtained a gain of 19.3% efficiency in the presence of FasL for 15 minutes. No FRET was observed without FasL. […] FIG. 3e depicts the results of experiments in which CFP-tagged Fas or CFP control vector were transiently expressed in Hepa 1-6 Cells (3×10^5). […] Cells were fixed and analyzed by fluorescence microscopy. […]

Assay [2] has as its system Jurkat cells. The assay is described as follows: Fas-ligand induced apoptosis in Jurkat cells (Trypan Blue, flow cytometry). Format: cell-based, human. The method, then:
For FIG. 4a, Jurkat cells (1.5×10^5) were overnight treated in triplicate with 5 ng/ml of crosslinked human Fas ligand with or without 5 μg/ml of recombinant AlphaMet or 1 μg/ml of the indicated polypeptides. Percent apoptosis was determined by Trypan Blue staining using a hemocytometer. The data are representative and were repeated at least four times. […] The 17 kDa fragment of cleaved Caspase 3 is visualized by this antibody. The blot was reprobed for β-actin as a loading control. For FIG. 4c, serum deprived Hepa 1-6 cells (3×10^5) were overnight treated with 1 μg/ml of crosslinked mouse Fas ligand with or without AlphaMet or the indicated polypeptide. Media were collected and centrifuged to pellet the dead cells. […] The data in FIG. 4c represents three independent experiments.
Apoptosis assay. Pre-washed Jurkat cells in RPMI 1640 medium containing 1% FBS were inoculated in 96-wells at a density of 10^5 cells per well. Apoptosis was induced by cross-linked human Fas-ligand (R&D Systems) at a concentration of 0.5 ng/ml or Anti-Fas (human, activating) clone CH11 (Upstate biotechnology) at a concentration of 500 ng /ml. Hepa 1-6 cells were overnight starved before induction of apoptosis. The apoptosis in Hepa 1-6 was induced by anti-mouse Fas antibody Jo2 (200 ng/ml) or human recombinant Fas-ligand. The extent of cell viability and apoptosis was determined by several methods such as Trypan Blue stain, flow cytometry, LDH assay, and Hoechst staining.
(In general: A flow cytometer gives signals particle by particle.)

The target of assay [3] is T2, Fas-Fc / FasL binding (Mus musculus, UniProt P25446).
T2 construct: purchased R&D
T2 sequence (P25446 22-169 limits assumed): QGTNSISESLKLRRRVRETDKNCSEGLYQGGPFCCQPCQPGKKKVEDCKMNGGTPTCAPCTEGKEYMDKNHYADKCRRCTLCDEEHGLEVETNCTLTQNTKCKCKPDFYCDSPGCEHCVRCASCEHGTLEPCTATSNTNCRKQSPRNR
The assay is described as follows: Competition pull down with Fas-Fc, recombinant AlphaMet and recombinant FasL. The method, then:
This antibody also recognizes Fas-Fc which is also tagged at the C-terminus by His. In FIG. 2b, a fixed amount of purified recombinant Fas-ligand was added to Fas-Fc in the absence or presence of increasing amounts of AlphaMet as indicated. Samples were subjected to pull down using proteinA agarose followed by Western blot using a polyclonal rabbit anti-FasL antibody. […] Fas ligand (1 μg/ml) was coated in the wells of a microtiter plate (triplicate wells) then 1 μg/ml of Fas-Fc was added in the absence or presence of an increasing amount of the indicated polypeptide. A 13 mer YLGA polypeptide derived from FasL also was synthesized and used. The control peptide was a scrambled 13 mer. Anti human […] conjugates were used to detect the bound Fas-Fc. […] One-way ANOVA was carried out for determination of statistical significance. […] Cells (3×10^5) were plated in 24-well plates having Poly-L-Lysine pre-treated cover glass. 2 μg/ml of Fas ligand was added and the cells were incubated for 30 min on ice. Cells were then washed by PBS twice, and were subjected to immunostaining using anti-Fas ligand antibody and fluorescent microscopy. In Frame A, Fas ligand was not added, in B, only Fas ligand was added, in C-F, Fas ligand was added with different polypeptides as follows: AlphaMet, 12 mer YLGA, control peptide, and YLGA mutated AlphaMet, respectively. […]

Assay [4] deals with endogenous Fas of Jurkat cells (human) (UniProt P25445). Put plainly: cell-based or functional assay.

B1: alpha subunit of Met (AlphaMet), amino acid residues 1 to 306, His-tagged (receptor, mouse)
chain: MKAPTVLAPGILVLLLSLVQRSHGECKEALVKSEMNVNMKYQLPNFTAETPIQNVVLHGHHIYLGATNYIYVLNDKDLQKVSEFKTGPVLEHPDCLPCRDCSSKANSSGGVWKDNINMALLVDTYYDDQLISCGSVNRGTCQRHVLPPDNSADIQSEVHCMFSPEEESGQCPDCVVSALGAKVLLSEKDRFINFFVGNTINSSYPPGYSLHSISVRRLKETQDGFKFLTDQSYIDVLPEFLDSYPIKYIHAFESNHFIYFLTVQKETLDAQTFHTRIIRFCSVDSGLHSYMEMPLECILTEKRRKRHHHHHH
Consider B1, for which the Fas trimerization result in assay [1] is “reduced the Fas trimerization to the background level”. The death rate in assay [2] (Fas-ligand overnight, AlphaMet 5 μg/ml, Trypan Blue) was 12%. For the same molecule, the “sub-G1 (apoptotic) population” value in assay [2] (Propidium Iodide flow cytometry, Fas-ligand) amounted to 8%. For the same molecule, the “FasL binding to Fas in pull down” value in assay [3] (fixed FasL, increasing amounts of AlphaMet) is listed as “blocked the FasL binding to Fas”. In addition, the “binding of AlphaMet to Fas in presence of FasL” value in assay [3] (increasing amounts of FasL) was “completely abrogated by increasing amounts of FasL”. Also, in assay [4], the death rate of Jurkat cells treated with Fas-ligand (Trypan Blue) worked out at 12% and the sub-G1 population of Jurkat cells treated with Fas-ligand (Propidium Iodide, flow cytometry) turned out to be 8%.
